Among the data in paper PMC12636033, “Chemical Engineering of Transcription Factors Uncovered Cell-Permeable μMax Modulators” are binding signal values, retold here.

The chains are these.
B1: dBr_Jan07_34042 (dsDNA)
DNA 1: GCCGAAAGTCCCCCACGTGGTCAGTAAAAGAGAAGAGTCTGTGTTCCGTTGTCCGTGCTG
DNA 2: CAGCACGGACAACGGAACACAGACTCTTCTCTTTTACTGACCACGTGGGGGACTTTCGGC
B2: dBr_Jan07_30456 (dsDNA)
DNA 1: GGCGTTGTCAGGAAGGATTGGCTGTCGTCAACACGTGTCTGTGTTCCGTTGTCCGTGCTG
DNA 2: CAGCACGGACAACGGAACACAGACACGTGTTGACGACAGCCAATCCTTCCTGACAACGCC
B3: dBr_Jan07_17404 (dsDNA)
DNA 1: TTGCGTGTTGTGTCTAATATCCAAACTACACCACGTGTCTGTGTTCCGTTGTCCGTGCTG
DNA 2: CAGCACGGACAACGGAACACAGACACGTGGTGTAGTTTGGATATTAGACACAACACGCAA
B4: dBr_Jan07_01656 (dsDNA)
DNA 1: TCGATCACACACGTGCTTATTGTACCAAACACATACGTCTGTGTTCCGTTGTCCGTGCTG
DNA 2: CAGCACGGACAACGGAACACAGACGTATGTGTTTGGTACAATAAGCACGTGTGTGATCGA
B5: dBr_Jan07_17964 (dsDNA)
DNA 1: ACTTGAATGAGGGCCTTTGATCTGCTTTACTCACGTGTCTGTGTTCCGTTGTCCGTGCTG
DNA 2: CAGCACGGACAACGGAACACAGACACGTGAGTAAAGCAGATCAAAGGCCCTCATTCAAGT
B6: dBr_Jan07_15201 (dsDNA)
DNA 1: TTGCCTGGGATTAGATTCTACGCTCACGATGCACGTGTCTGTGTTCCGTTGTCCGTGCTG
DNA 2: CAGCACGGACAACGGAACACAGACACGTGCATCGTGAGCGTAGAATCTAATCCCAGGCAA
B7: dBr_Jan07_02206 (dsDNA)
DNA 1: GGCAGTCGGTCGTTCCAGATATTAGGATCTCCACGTGTCTGTGTTCCGTTGTCCGTGCTG
DNA 2: CAGCACGGACAACGGAACACAGACACGTGGAGATCCTAATATCTGGAACGACCGACTGCC
B8: dBr_Jan07_23401 (dsDNA)
DNA 1: TCTATGCTCGCGGATGCCCTTAAACTAGGCACGTGTGTCTGTGTTCCGTTGTCCGTGCTG
DNA 2: CAGCACGGACAACGGAACACAGACACACGTGCCTAGTTTAAGGGCATCCGCGAGCATAGA
B9: dBr_Jan07_19348 (dsDNA)
DNA 1: ACCTCTGTAAGTCTGAGTCTGATAACCACGTGTCGGGTCTGTGTTCCGTTGTCCGTGCTG
DNA 2: CAGCACGGACAACGGAACACAGACCCGACACGTGGTTATCAGACTCAGACTTACAGAGGT
B10: dBr_Jan07_14484 (dsDNA)
DNA 1: CTGCAGTTCTACTGTATCCACGACATAGAGACACGTGTCTGTGTTCCGTTGTCCGTGCTG
DNA 2: CAGCACGGACAACGGAACACAGACACGTGTCTCTATGTCGTGGATACAGTAGAACTGCAG
B11: dBr_Jan07_15488 (dsDNA)
DNA 1: TAGTAGTCGTTGCTAGCTGCAAGGAATGGCGCACGTGTCTGTGTTCCGTTGTCCGTGCTG
DNA 2: CAGCACGGACAACGGAACACAGACACGTGCGCCATTCCTTGCAGCTAGCAACGACTACTA
B12: dBr_Jan07_27753 (dsDNA)
DNA 1: TTTTCATACGAACTTCGAGCTCCCCACGTGGTTCTTGTCTGTGTTCCGTTGTCCGTGCTG
DNA 2: CAGCACGGACAACGGAACACAGACAAGAACCACGTGGGGAGCTCGAAGTTCGTATGAAAA
B13: dBr_Jan07_18911 (dsDNA)
DNA 1: ACAAACCCCGCACGTGCCTTCGCCCCCTCCTATGCGGTCTGTGTTCCGTTGTCCGTGCTG
DNA 2: CAGCACGGACAACGGAACACAGACCGCATAGGAGGGGGCGAAGGCACGTGCGGGGTTTGT
B14: dBr_Jan07_27761 (dsDNA)
DNA 1: ATATCGACCTTTTATTGAAAACCGGGAGTCTCACGTGTCTGTGTTCCGTTGTCCGTGCTG
DNA 2: CAGCACGGACAACGGAACACAGACACGTGAGACTCCCGGTTTTCAATAAAAGGTCGATAT
B15: dBr_Jan07_01852 (dsDNA)
DNA 1: AGGAGTCTTGCCGCACGGTCCCCGTCTTATGCACGTGTCTGTGTTCCGTTGTCCGTGCTG
DNA 2: CAGCACGGACAACGGAACACAGACACGTGCATAAGACGGGGACCGTGCGGCAAGACTCCT
B16: dBr_Jan07_04601 (dsDNA)
DNA 1: GGTGTACGCTAAGGATGCTACTACGACCTAACACGTGTCTGTGTTCCGTTGTCCGTGCTG
DNA 2: CAGCACGGACAACGGAACACAGACACGTGTTAGGTCGTAGTAGCATCCTTAGCGTACACC
B17: dBr_Jan07_38389 (dsDNA)
DNA 1: CAAGCCTATCGCGGCCAATCGGTAAGCACGTGACTAGTCTGTGTTCCGTTGTCCGTGCTG
DNA 2: CAGCACGGACAACGGAACACAGACTAGTCACGTGCTTACCGATTGGCCGCGATAGGCTTG
B18: dBr_Jan07_07015 (dsDNA)
DNA 1: CGATACTGTATCGCATGGACAGCACGTGCAATTAGGGTCTGTGTTCCGTTGTCCGTGCTG
DNA 2: CAGCACGGACAACGGAACACAGACCCTAATTGCACGTGCTGTCCATGCGATACAGTATCG
B19: dBr_Jan07_31500 (dsDNA)
DNA 1: CTCCGTGGGTTCGTGAGTTCATGGCGAAAAGCACGTGTCTGTGTTCCGTTGTCCGTGCTG
DNA 2: CAGCACGGACAACGGAACACAGACACGTGCTTTTCGCCATGAACTCACGAACCCACGGAG
B20: dBr_Jan07_05071 (dsDNA)
DNA 1: CGTGTAACCTTCAGGCACGTGGTTTAATCGTTATCCGTCTGTGTTCCGTTGTCCGTGCTG
DNA 2: CAGCACGGACAACGGAACACAGACGGATAACGATTAAACCACGTGCCTGAAGGTTACACG
B21: dBr_Jan07_38976 (dsDNA)
DNA 1: CGACACAGAAAACAATTCCGACTTGCTTTCCGCGTGGTCTGTGTTCCGTTGTCCGTGCTG
DNA 2: CAGCACGGACAACGGAACACAGACCACGCGGAAAGCAAGTCGGAATTGTTTTCTGTGTCG
B22: dBr_Jan07_31967 (dsDNA)
DNA 1: GTGTCACGTGTCGTTCATCCTTATTAACTAGGGTCTGTCTGTGTTCCGTTGTCCGTGCTG
DNA 2: CAGCACGGACAACGGAACACAGACAGACCCTAGTTAATAAGGATGAACGACACGTGACAC
B23: dBr_Jan07_24740 (dsDNA)
DNA 1: ATAGAGCGTCAGAATAGTGACATACACGTGGTCCCCGTCTGTGTTCCGTTGTCCGTGCTG
DNA 2: CAGCACGGACAACGGAACACAGACGGGGACCACGTGTATGTCACTATTCTGACGCTCTAT

For this series, the target named is WT Max (Homo sapiens, UniProt P61244-2 13-93, M65Nle, norleucine written as M; other non-natural residues written as X). In words: PBM; 50-200 nM protein; PBS, 2% milk, BSA, salmon testes DNA, 0.02% Triton X-100. The conditions noted are these: chain copies: 2; label: surface-attached array probe.
Chain of WT Max (P61244 other isoform, or with tags, fused parts or gaps M65Nle): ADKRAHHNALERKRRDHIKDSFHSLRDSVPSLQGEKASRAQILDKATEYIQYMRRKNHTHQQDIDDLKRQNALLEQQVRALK
As to B1, the binding signal is 4.32 robust z of log adjusted intensity (ours), mean of two arrays.

Turning to B2, the binding signal was 3.62 robust z of log adjusted intensity (ours), mean of two arrays.

Take B3: the binding signal was 4.24 robust z of log adjusted intensity (ours), mean of two arrays.

B4: the binding signal is 3.68 robust z of log adjusted intensity (ours), mean of two arrays.

On to B5, for which the binding signal is 3.59 robust z of log adjusted intensity (ours), mean of two arrays.

Turning to B6, the binding signal was 3.45 robust z of log adjusted intensity (ours), mean of two arrays.

As to B7, the binding signal was 3.71 robust z of log adjusted intensity (ours), mean of two arrays.

B8: the binding signal was 3.69 robust z of log adjusted intensity (ours), mean of two arrays.

On to B9, for which the binding signal was 5.01 robust z of log adjusted intensity (ours), mean of two arrays.

Turning to B10, the binding signal is 5.27 robust z of log adjusted intensity (ours), mean of two arrays.

Consider B11, for which the binding signal is 3.81 robust z of log adjusted intensity (ours), mean of two arrays.

Consider B12, for which the binding signal was 5.1 robust z of log adjusted intensity (ours), mean of two arrays.

Take B13: the binding signal was 3.79 robust z of log adjusted intensity (ours), mean of two arrays.

For B14, the binding signal was 3.44 robust z of log adjusted intensity (ours), mean of two arrays.

For B15, the binding signal was 3.5 robust z of log adjusted intensity (ours), mean of two arrays.

Regarding B16, the binding signal was 3.7 robust z of log adjusted intensity (ours), mean of two arrays.

Consider B17, for which the binding signal is 3.67 robust z of log adjusted intensity (ours), mean of two arrays.

In the case of B18, the binding signal is 3.94 robust z of log adjusted intensity (ours), mean of two arrays.

Take B19: the binding signal was 4.51 robust z of log adjusted intensity (ours), mean of two arrays.

Consider B20, for which the binding signal was 4.32 robust z of log adjusted intensity (ours), mean of two arrays.

On to B21, for which the binding signal was 3.81 robust z of log adjusted intensity (ours), mean of two arrays.

As to B22, the binding signal is 3.79 robust z of log adjusted intensity (ours), mean of two arrays.

B23: the binding signal was 3.51 robust z of log adjusted intensity (ours), mean of two arrays.
